From patent US7122190

Columns and labels:
[1] = biological target: viral gp41 of HIV-1 (on virions and HIV-1 infected cells) (HIV-1) (UniProt P03377); assay: cell-based or functional assay
[2] = biological target: viral gp41 (HIV-1IIIB transmembrane protein on infected cells and virions) (HIV-1IIIB) (UniProt P04578); assay: cell-based or functional assay

Substance | 90% block of syncytia formation (HIV-1IIIB cell fusion assay) [1] | 90% neutralisation of HIV-1IIIB infection [1] | Cell fusion (IC90) [2] | HIV infectivity (IC90) [2]
M41-P, M41 with an Ile to Pro mutation at position 578 (from UniProt P03377 540-686) | 85 nM | 70 nM | – | –
M41 (maltose binding protein fused to the extracellular domain of HIV-1 gp41, residues 540-686) (from UniProt P03377 540-686) | – | – | > 50 µM | > 16 µM
